For 1 substance, cytotoxicity (cell killing, Cell Titer-Glo viability) on SKBR3 cells, EC50 results are on record in patent US20160257946A1.

The target of the test is Her2 on the Her2-positive breast cancer cell line SKBR3 (UniProt P04626). In words: cell-based or functional assay.

In turn, “trastuzumab-MMAF conjugates (trastuzumab-HC136-MMAF) (antibody)” returned a cytotoxicity (cell killing, Cell Titer-Glo viability) on SKBR3 cells, EC50 of 0.043 to 0.071 nM.
